“Also recorded” adds a separate entry of the source.

Data on four molecules can be found in patent US20250002596A1, “NEUTRALIZING ANTI-CD95L MONOCLONAL ANTIBODIES” (INSTITUT NATIONAL DE LA SANTÉ ET DE LA RECHERCHE MÉDICALE, priority 2021, published 2025).

One assay addresses IgCD95L (UniProt P48023). Nature of the assay: SPR. (In general: Surface plasmon resonance follows binding to a sensor surface in real time, without labels.)
In the next assay the target is CD95L (UniProt P48023). The assay is described as follows: flow cytometry (1A12 cells).
The target in assay [1] is T1, Ig-CD95L (soluble and cytotoxic human CD95L) (UniProt P48023 103-281).
T1 chain: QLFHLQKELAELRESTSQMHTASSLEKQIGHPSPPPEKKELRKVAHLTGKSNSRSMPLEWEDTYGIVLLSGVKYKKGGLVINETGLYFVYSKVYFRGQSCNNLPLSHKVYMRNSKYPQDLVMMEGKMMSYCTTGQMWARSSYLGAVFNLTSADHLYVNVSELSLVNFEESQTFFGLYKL
Nature of the assay: SPR.

Assay [2] addresses T2, human CD95L expressed on cells (UniProt P48023 1-281).
T2 chain: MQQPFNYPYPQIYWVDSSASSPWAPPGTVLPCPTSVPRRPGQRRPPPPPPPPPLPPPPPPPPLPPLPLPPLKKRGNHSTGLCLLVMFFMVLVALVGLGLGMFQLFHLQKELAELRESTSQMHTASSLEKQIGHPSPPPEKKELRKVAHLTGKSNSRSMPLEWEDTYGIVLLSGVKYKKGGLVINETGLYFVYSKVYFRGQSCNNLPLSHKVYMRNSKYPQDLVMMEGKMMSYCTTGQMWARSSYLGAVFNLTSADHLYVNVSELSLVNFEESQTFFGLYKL
The assay is described as follows: flow cytometry (1A12 cells). For orientation: A flow cytometer gives signals particle by particle.

The target in assay [3] is T3, human CD95L expressed on cells (human, UniProt P48023 1-281).
T3 construct: also called FasL; FASL
T3 sequence: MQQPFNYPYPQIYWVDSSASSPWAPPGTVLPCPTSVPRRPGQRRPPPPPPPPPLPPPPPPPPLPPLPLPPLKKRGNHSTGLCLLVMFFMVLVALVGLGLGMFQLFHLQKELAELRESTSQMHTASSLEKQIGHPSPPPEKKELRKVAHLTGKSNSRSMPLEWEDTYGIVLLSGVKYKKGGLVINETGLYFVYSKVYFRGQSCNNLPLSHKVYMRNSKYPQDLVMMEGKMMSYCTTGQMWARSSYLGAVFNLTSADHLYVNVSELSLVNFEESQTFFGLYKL
The assay is described as follows: flow cytometry on HEK/293T cells transiently transfected with CD95L, antibody at 1 µg/ml. As for the experimental part: (§1) FIG. 1. JQ3 recognizes human and simian CD95L and is a stronger neutralizing anti-CD95L mAb as compared to the commercial anti-CD95L antibody NOK-1. A. Kon, Koff and Kd of JQ3 (IgG1κ) and NOK-1 (IgG1κ) hybridoma measured by surface plasmon resonance. IgCD95L was immobilized on a sensor chip S CM5 and antibody binding features was evaluated using a Biacore T200. B. The ability of the anti-human CD95L monoclonal antibodies NOK-1 and JQ3 and anti-mouse CD95L monoclonal antibody MFL3 (1 μg/ml) to recognize human, simian or mouse CD95L was determined by flow cytometry using HEK/293T cells transiently transfected with indicated CD95L-encoding pcDNA3.1 vectors. C. The binding efficiency of NOK-1 and JQ3 was compared by flow cytometry against CD95L-expressing 1A12 cell line. Left panel: Histograms report the intensity of CD95L staining (CD95L mean of fluorescence—isotypic mean of fluorescence) according to the antibody concentration (M). Right panels: examples of CD95L staining, in red the JQ3 or NOK-1 staining and in grey the isotypic staining. Table indicates the half maximal effective concentration (EC50) for each antibody. D. The neutralizing ability of NOK1 and JQ3 mAbs was compared by incubating CD95-sensitive Jurkat cell line (5.10⁵ cells) for 24 hours with 100 ng/ml of Ig-CD95L (soluble and cytotoxic human CD95L) in the presence or absence of the indicated concentrations of antibody.

Assay [4] has as its system CD95-mediated Ca^2+ response in neutrophils. Nature of the assay: Calcium response (Cal-520 imaging) of healthy donor neutrophils stimulated with patient sera. It counts as cell-based, human. To be noted: sera from AAV or COVID-19 patients pre-incubated 30 min with antibody 10 μg/mL.
A further assay deals with T4, human CD95L (Homo sapiens, UniProt P48023).
T4 construct: expressed in transfected cells; host or cells: HEK/293T
T4 sequence (P48023 1-281): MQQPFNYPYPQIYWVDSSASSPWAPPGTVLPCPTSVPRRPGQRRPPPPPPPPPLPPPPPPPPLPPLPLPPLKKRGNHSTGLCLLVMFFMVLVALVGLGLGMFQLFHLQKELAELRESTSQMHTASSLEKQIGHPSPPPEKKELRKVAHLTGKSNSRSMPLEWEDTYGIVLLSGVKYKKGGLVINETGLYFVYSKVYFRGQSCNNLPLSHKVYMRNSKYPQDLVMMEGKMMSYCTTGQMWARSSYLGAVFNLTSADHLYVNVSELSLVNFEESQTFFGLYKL
The assay is described as follows: Flow cytometry recognition of CD95L on transiently transfected HEK/293T cells. It is filed as cell-based. To be noted: antibody 1 μg/ml, HEK/293T cells transfected with CD95L-encoding pcDNA3.1 vector. On the procedure:
as §1, with “JQ3 recognizes human and simian CD95L and is a stronger neutralizing anti-CD95L mAb as compared to the commercial anti-CD95L antibody NOK-1.” left out, “(5.10^5” for “(5.10⁵”

For the next assay, the system named is simian CD95L. The description is as above. It is filed as cell-based. To be noted: antibody 1 μg/ml, HEK/293T cells transfected with CD95L-encoding pcDNA3.1 vector. On the procedure:
as §1, with “JQ3 recognizes human and simian CD95L and is a stronger neutralizing anti-CD95L mAb as compared to the commercial anti-CD95L antibody NOK-1.” left out, “(5.10^5” for “(5.10⁵”

For assay [5], the system named is Ig-CD95L (soluble and cytotoxic human CD95L). Nature of the assay: Neutralization of Ig-CD95L-induced cell death in Jurkat T-cells (MTT assay). It is filed as cell-based. To be noted: 24 hours, 100 ng/ml Ig-CD95L, compared with NOK-1. As for the experimental part:
as §1, with “JQ3 recognizes human and simian CD95L and is a stronger neutralizing anti-CD95L mAb as compared to the commercial anti-CD95L antibody NOK-1.” left out, “D. The neutralizing ability of NOK1 and JQ3 mAbs was compared by incubating CD95-sensitive Jurkat cell line (5.10⁵ cells) for 24 hours with 100 ng/ml of Ig-CD95L (soluble and cytotoxic human CD95L) in the presence or absence of the indicated concentrations of antibody.” left out
Cell viability was assessed using MTT (3-(4,5-dimethylthiazol-2-yl)-2,5-diphenyltetrazolium bromide) assay as previously described (48). […] Then, MTT (15 μl at 5 mg/mL in PBS) was added, and after 4 h of incubation at 37° C., the absorbance was measured at 570 nm wavelength using the Infinite200Pro (Tecan, Männedorf, Switzerland).

The term Kd denotes a measure of binding affinity in units of concentration. Low values mean higher affinity, high ones lower affinity. For the molecule NOK1, the equilibrium dissociation constant (Kd) in the assay with IgCD95L amounted to 5.3 nM.
Broadly, the EC50 is the midpoint of the concentration-response curve. The low end stands for a more potent agent, the high end for a less potent agent. The molecule NOK-1 came in with a half-maximal effective concentration (EC50) in the assay with CD95L of 353000 nM.

B1: JQ3 neutralizing anti-CD95L monoclonal antibody (IgG1κ) (antibody, V domains shown)
VH: EIQLQQTGPELVKPGASVKISCKASGFSFTDYIMVWVKQSHGKILEWIGDISPYYGTATYNLKFKGKATLTVVKSSSTAYMQLNSLTSEDSAVYYCARAPNRYEVMDYWGQGTSVTVSS
VL: QIVFTQSPAIMSAFLGEEITLTCSASSSVSYMHWYQQKSGTSPKLLIYNTFNLASGVPSRFSGSGSGTFYSLTISSVEAEDAADYYCHQWSSYPTFGGGTKLEIK
notes: Mouse (Balb/c) hybridoma antibody, IgG1 kappa, purified on protein A; also called JQ3 mAb
The molecule B1 displayed a Kd in assay [1] of 2.2 nM. Besides, in [2], the concentration for a half-maximal effect (EC50) was found to be 5.53 nM. Moreover, the binding result in [3] is given as “binds”.

B2: JQ3: neutralizing anti-CD95L monoclonal antibody (IgG1κ), mouse hybridoma; VL and VH domains given as sequences (antibody, V domains shown)
VH: EIQLQQTGPELVKPGASVKISCKASGFSFTDYIMVWVKQSHGKILEWIGDISPYYGTATYNLKFKGKATLTVVKSSSTAYMQLNSLTSEDSAVYYCARAPNRYEVMDYWGQGTSVTVSS
VL: QIVFTQSPAIMSAFLGEEITLTCSASSSVSYMHWYQQKSGTSPKLLIYNTFNLASGVPSRFSGSGSGTFYSLTISSVEAEDAADYYCHQWSSYPTFGGGTKLEIK
In the case of B2, the “inhibition of neutrophil activation (calcium response)” value in assay [4] was “inhibit neutrophil activation (calcium response); also recorded: blocked the CD95-mediated Ca^2+ response”. Moreover, the “recognition of human CD95L” value in the assay with human CD95L is “recognizes”. In addition, the “recognition of simian CD95L” value in the assay on simian CD95L is “recognizes”. For the same molecule, the “neutralizing ability (inhibition of CD95-mediated apoptotic signaling pathway)” value in [5] is recorded as “stronger neutralizing anti-CD95L mAb as compared to the commercial anti-CD95L antibody NOK-1; also recorded: inhibited the CD95-mediated apoptotic signaling pathway induced in T-cell line Jurkat more efficiently than NOK-1 mAb”.
